# Test results as given in article PMC4462998, “Cell age dependent concentration of Escherichia coli divisome proteins analyzed with ImageJ and ObjectJ” (Frontiers in Microbiology, 2015).
# Biological target: T1, FtsQ (Escherichia coli, UniProt P06136 1-276)
# T1 construct: FtsQ of Escherichia coli
# Assay: not stated; unpublished results (Luirink and den Blaauwen); method not given
# T1 sequence (P06136 whole entry): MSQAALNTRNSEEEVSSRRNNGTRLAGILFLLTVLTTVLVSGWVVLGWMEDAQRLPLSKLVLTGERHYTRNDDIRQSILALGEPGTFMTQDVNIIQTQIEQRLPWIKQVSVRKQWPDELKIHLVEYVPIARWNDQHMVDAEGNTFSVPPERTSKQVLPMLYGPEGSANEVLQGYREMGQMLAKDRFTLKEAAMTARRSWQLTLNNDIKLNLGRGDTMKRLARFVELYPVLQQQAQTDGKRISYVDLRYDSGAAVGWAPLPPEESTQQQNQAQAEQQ
binder,measurement,value
"FtsB (natural protein, Escherichia coli, UniProt P0A6S5 1-103, looked up, FtsB of Escherichia coli) MGKLTLLLLAILVWLQYSLWFGKNGIHDYTRVNDDVAAQQATNAKLKARNDQLFAEIDDLNGGQEALEERARNELSMTRPGETFYRLVPDASKRAQSAGQNNR",stoichiometry N,1
